Experimental data: the supplement of paper PMC10126150
± gives the standard deviation of the averaged measurements.

Test system: ATP
Assay: switch fluorescence ratio, 500 uM ATP over buffer (Cy3 cluster intensity, sum of 5 cycles each) (fold (ratio)); higher = stronger signal-on switching upon ATP binding; sequences stand for … in TCGTCGGCAGCGTCAGATGTGTATAAGAGACAGTTTTTTTTTTTTTTTTTTTTTTTTT…TC
Details: aptamer strand: ATP DNA aptamer (quencher-CACCTGGGGGAGTATTGCGGAGGAAGG + anchor), 100 nM annealed; ATP concentration: 500 uM
In short: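 The fluorescence ratio divides summed target-cycle Cy3 intensity by summed buffer-cycle Cy3 intensity for each cluster and is averaged per switch-domain sequence. Cy3-labelled switching-strand clusters on a modified Illumina MiSeq flow-cell were annealed to 100 nM quencher-labelled ATP aptamer, then imaged in selection buffer and again after 15 min with 500 uM ATP at 22 °C. Five such cycles were run, with NaOH stripping and re-annealing between them, and clusters outside 100-1000 RFU were excluded.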
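Note: ATP exposure 15 min at 22 °C before imaging.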

Sequence: CGCGCCGTTG
- switch fluorescence ratio: 1 ± 0.011

Sequence: CGCGCCTGTG
- switch fluorescence ratio: 1.17 ± 0.23

Sequence: CGCGCGGGCT
- switch fluorescence ratio: 0.998 ± 0.051

Sequence: CGCGCGTCGG
- switch fluorescence ratio: 0.978 ± 0.021

Sequence: CGCGCTGCTG
- switch fluorescence ratio: 1.03 ± 0.029

Sequence: CGCGGAGCTT
- switch fluorescence ratio: 1.03 ± 0.033

Sequence: CGCGGGAAGG
- switch fluorescence ratio: 1.02 ± 0.036

Sequence: CGCGGGGAAG
- switch fluorescence ratio: 0.98 ± 0.053

Sequence: CGCGGGGGAT
- switch fluorescence ratio: 1.03 ± 0.067

Sequence: CGCGGGGGCG
- switch fluorescence ratio: 0.991 ± 0.025

Sequence: CGCGGGGGTA
- switch fluorescence ratio: 0.995 ± 0.03

Sequence: CGCGGTGCGG
- switch fluorescence ratio: 1.005 ± 0.0076

Sequence: CGCGGTGTGG
- switch fluorescence ratio: 1.03 ± 0.022

Sequence: CGCGGTTGCG
- switch fluorescence ratio: 0.9668 ± 0.0054

Sequence: CGCGTAATAT
- switch fluorescence ratio: 2.07 ± 0.069

Sequence: CGCGTACGTT
- switch fluorescence ratio: 1.05 ± 0.018

Sequence: CGCGTAGGGC
- switch fluorescence ratio: 1.04 ± 0.016

Sequence: CGCGTGCAGG
- switch fluorescence ratio: 1.02 ± 0.033

Sequence: CGCGTGGTA
- switch fluorescence ratio: 1.07 ± 0.013

Sequence: CGCGTTCATT
- switch fluorescence ratio: 0.972 ± 0.038

Sequence: CGCGTTCGCT
- switch fluorescence ratio: 1.025 ± 0.0083

Sequence: CGCGTTTCCC
- switch fluorescence ratio: 1.27 ± 0.038

Sequence: CGCTAACTTG
- switch fluorescence ratio: 1.01 ± 0.047

Sequence: CGCTACGTGT
- switch fluorescence ratio: 1.02 ± 0.038

Sequence: CGCTACTTAT
- switch fluorescence ratio: 1.12 ± 0.029

Sequence: CGCTAGATTT
- switch fluorescence ratio: 0.996 ± 0.031

Sequence: CGCTATTGGT
- switch fluorescence ratio: 1.002 ± 0.0043

Sequence: CGCTATTGTG
- switch fluorescence ratio: 1.01 ± 0.021

Sequence: CGCTCCCATT
- switch fluorescence ratio: 1.46 ± 0.024

Sequence: CGCTCGCCTG
- switch fluorescence ratio: 1.03 ± 0.016

Sequence: CGCTCGGTTA
- switch fluorescence ratio: 0.956 ± 0.031

Sequence: CGCTCGTGCG
- switch fluorescence ratio: 1 ± 0.017

Sequence: CGCTGACGGA
- switch fluorescence ratio: 1.01 ± 0.053

Sequence: CGCTGAGCTG
- switch fluorescence ratio: 1 ± 0.029

Sequence: CGCTGAGTTT
- switch fluorescence ratio: 0.993 ± 0.021

Sequence: CGCTGCTAAT
- switch fluorescence ratio: 1.58 ± 0.08

Sequence: CGCTGGCCGG
- switch fluorescence ratio: 0.972 ± 0.037

Sequence: CGCTGGGGGG
- switch fluorescence ratio: 1.02 ± 0.048

Sequence: CGCTGTGACT
- switch fluorescence ratio: 1.02 ± 0.031

Sequence: CGCTTAACGT
- switch fluorescence ratio: 1.05 ± 0.096

Sequence: CGCTTAATCT
- switch fluorescence ratio: 1.07 ± 0.018

Sequence: CGCTTAGGTT
- switch fluorescence ratio: 1.06 ± 0.061

Sequence: CGCTTATAGG
- switch fluorescence ratio: 1.03 ± 0.052

Sequence: CGCTTATGCA
- switch fluorescence ratio: 1.02 ± 0.02

Sequence: CGCTTGTCAC
- switch fluorescence ratio: 1.18 ± 0.021

Sequence: CGCTTGTGTT
- switch fluorescence ratio: 0.9821 ± 0.0015

Sequence: CGCTTTACTA
- switch fluorescence ratio: 2.21 ± 0.07

Sequence: CGCTTTAGTG
- switch fluorescence ratio: 1.01 ± 0.014

Sequence: CGCTTTAGTT
- switch fluorescence ratio: 0.986 ± 0.026

Sequence: CGCTTTTGGG
- switch fluorescence ratio: 0.999 ± 0.03

Sequence: CGGAAAAAGC
- switch fluorescence ratio: 0.985 ± 0.028

Sequence: CGGAAAATTA
- switch fluorescence ratio: 1.015 ± 0.0067

Sequence: CGGAAACATT
- switch fluorescence ratio: 1.04 ± 0.039

Sequence: CGGAAAGAAG
- switch fluorescence ratio: 0.989 ± 0.046

Sequence: CGGAAAGCAG
- switch fluorescence ratio: 1.02 ± 0.028

Sequence: CGGAAAGGGG
- switch fluorescence ratio: 0.978 ± 0.021

Sequence: CGGAACCGGG
- switch fluorescence ratio: 1.03 ± 0.024

Sequence: CGGAACGCTC
- switch fluorescence ratio: 1.71 ± 0.025

Sequence: CGGAAGACGT
- switch fluorescence ratio: 1.02 ± 0.036

Sequence: CGGAAGGCAT
- switch fluorescence ratio: 1.04 ± 0.025

Sequence: CGGAATAATT
- switch fluorescence ratio: 1.04 ± 0.025

Sequence: CGGAATAGTG
- switch fluorescence ratio: 1.2 ± 0.039

Sequence: CGGAATTCAC
- switch fluorescence ratio: 1.39 ± 0.017

Sequence: CGGACCGATG
- switch fluorescence ratio: 1.01 ± 0.0094

Sequence: CGGACTCAAA
- switch fluorescence ratio: 1.12 ± 0.025

Sequence: CGGAGAAGGG
- switch fluorescence ratio: 0.974 ± 0.029

Sequence: CGGAGAGAGG
- switch fluorescence ratio: 1.01 ± 0.015

Sequence: CGGAGAGCTG
- switch fluorescence ratio: 1.04 ± 0.014

Sequence: CGGAGATAGT
- switch fluorescence ratio: 1.02 ± 0.028

Sequence: CGGAGCTACG
- switch fluorescence ratio: 1.49 ± 0.04

Sequence: CGGAGGAGC
- switch fluorescence ratio: 1.02 ± 0.016

Sequence: CGGAGGAGGG
- switch fluorescence ratio: 1.21 ± 0.3

Sequence: CGGAGGAGTA
- switch fluorescence ratio: 1.03 ± 0.03

Sequence: CGGAGGGGAG
- switch fluorescence ratio: 0.977 ± 0.011

Sequence: CGGAGTGTGT
- switch fluorescence ratio: 1.01 ± 0.016

Sequence: CGGATATAAG
- switch fluorescence ratio: 1.01 ± 0.013

Sequence: CGGATATTGT
- switch fluorescence ratio: 0.995 ± 0.028

Sequence: CGGATCGACA
- switch fluorescence ratio: 0.976 ± 0.025

Sequence: CGGATCGGTG
- switch fluorescence ratio: 0.991 ± 0.019

Sequence: CGGATCTGAG
- switch fluorescence ratio: 1.01 ± 0.078

Sequence: CGGATGAGGC
- switch fluorescence ratio: 1.08 ± 0.018

Sequence: CGGATGCGTT
- switch fluorescence ratio: 0.981 ± 0.024

Sequence: CGGATGGATC
- switch fluorescence ratio: 1.02 ± 0.041

Sequence: CGGATGTGGT
- switch fluorescence ratio: 0.973 ± 0.016

Sequence: CGGATGTGTT
- switch fluorescence ratio: 0.951 ± 0.048

Sequence: CGGATGTTTT
- switch fluorescence ratio: 0.984 ± 0.02

Sequence: CGGATTTTCA
- switch fluorescence ratio: 0.9999 ± 0.0067

Sequence: CGGCACGTGG
- switch fluorescence ratio: 0.998 ± 0.021

Sequence: CGGCACGTTA
- switch fluorescence ratio: 1.06 ± 0.025

Sequence: CGGCAGAGGG
- switch fluorescence ratio: 1.02 ± 0.022

Sequence: CGGCAGCCGG
- switch fluorescence ratio: 1.01 ± 0.062

Sequence: CGGCAGGCGG
- switch fluorescence ratio: 1.05 ± 0.044

Sequence: CGGCAGGGGA
- switch fluorescence ratio: 1.05 ± 0.051

Sequence: CGGCAGTATC
- switch fluorescence ratio: 1.51 ± 0.12

Sequence: CGGCATTGGG
- switch fluorescence ratio: 1.02 ± 0.04

Sequence: CGGCCCAAGG
- switch fluorescence ratio: 1.22 ± 0.022

Sequence: CGGCCCGTAG
- switch fluorescence ratio: 1.02 ± 0.036

Sequence: CGGCCTTGCA
- switch fluorescence ratio: 1.026 ± 0.0095

Sequence: CGGCGTACTG
- switch fluorescence ratio: 1.03 ± 0.059

Sequence: CGGCGTGAGC
- switch fluorescence ratio: 0.993 ± 0.067
